substrate: N[C@@H](CC1(C(=O)O)C=CC(O)C=C1)C(=O)O; test: TyrA arogenate dehydrogenase kinetics and tyrosine inhibition (340 nm); format: biochemical, Brachypodium distachyon; details: other: NADP^+, pH 7.5, 37° C.
Text: (§1) Next, to study the biochemical properties of grass TyrA enzymes, we generated and characterized recombinant purified TyrA proteins from Brachypodium (BdTyrA) and Sorghum (SbTyrA), two distantly related grass species^43, 44. Whereas TyrA enzymes from dicot plants are generally NADP^+-dependent arogenate dehydrogenases^20, 39, 45, except for NADP^+-prephenate dehydrogenases in the legume family^40, 46, previous reports on the substrate preference of grass TyrA enzymes are inconclusive^17, 19. […] NAD^+-prephenate dehydrogenase activity was absent in all cases, ruling out a significant contamination of the enzyme preparations with the TyrA enzyme from E. coli^47.48.

Protein | Km [µM] | kcat [s⁻¹] | kcat/Km [M⁻¹ s⁻¹]
Brachypodium distachyon BdTyrAnc (non-canonical TyrA), SEQ ID NO: 37, recombinant (Brachypodium distachyon) (protein, from cDNA) AEQEQKQEVAAPCRDAYEKPAVWNTTAADSAEAAPPLRVGIIGFGNFGQFIARGIQRQGHAVLATSRSDYSAYCSAQGIRYFRSLEALCEEQPNVLLVCSSILSTEAVVRAIPFHKLRSDTIVADVLSVKQFPRNLLLEILPPEFGIVCTHPMFGPESGKHGWSTLPFVYDKVRLADKGDQKANCGQFLSIFEGEGCRMVEMSCAEHDRHAAASQFITHTIGRVLAQLNLKSTPINTKGFEALLKLTENTVSDSFDLYYGLFMYNVNATEQIEKLERAFEKVKQMLYGRLHDILRKQIVERVPI | 130 ± 40 | 76.5 ± 5.5 | 580000 ± 24300
Brachypodium distachyon BdTyrA1, SEQ ID NO: 33, recombinant (Brachypodium distachyon) (protein, from genomic DNA) MLSSSTSHLRLHQPSRAARRLPPAPAPATYQFQSPASRRSLPAPAVGARIRPNRGGTIRAIDAAQPFDYESRAAGLLEERQRLKIAIVGFGNFGQFLARTFARQGHTLLAHSRSDHSSLAASLGAAYFQDPHDLCECHPDVVLLATSILSAEAVLRSLPVHRLRRNTLFVDVLSVKEFPKNLLLTTLPEGFDIICTHPMFGPESARDGWDGLPFVFDKVRVGDCPARRARADTFLNIFEREGCRMVEMSCAEHDAHAAETQFLTHTVGRMLATLELQSTPINTKGYETLLRLVDNTCSDSFDLYNGLFMYNKNSTDLLNRLESAMDSVKKRLFDGLHDVLRKQLFEGKASPPATSSNTKSDVHRGQLLLEGKASPAPLNANNTTVRN | 1410 ± 240 | 5.2 ± 0.8 | 3600 ± 800
Brachypodium distachyon BdTyrA2, SEQ ID NO: 35, recombinant (Brachypodium distachyon) (protein) RATDAARQPFDHLSGAVKSEEGTHPRLKIAIVGFGNYGQFLARTMVQQGHTVLAHSRSDHSAAAATIGASFYADAHDLCECQPDVVLLSTSILSAEAVLRSLPVHRFRRSTLFADVLSVKEFPKNLLLAYLPGDFDVICTHPMFGPESARDGWAGLPFVFDEVRVGDGPARRARADAFLDVFAREGCRMVEMSCAEHDAHAAETQFLTHTVGRMLATLDLKSTPINTKGYETLLRLVDNTCSDSFDLYNGLFMYNNNATELLHRLESAMDSVKRRLFDGLHEVLRRQLFEGSPPLNRDSSFPAESSLDDGR | 450 ± 40 | 18.5 ± 0.6 | 41200 ± 1700

substrate: N[C@@H](CC1(C(=O)O)C=CC(O)C=C1)C(=O)O; test: as above; format: biochemical, Sorghum bicolor; details: other: NADP^+, pH 7.5, 37° C.; remark: another data set of the same source
Text: as §1

Protein | Km [µM] | kcat [s⁻¹] | kcat/Km [M⁻¹ s⁻¹]
Sorghum bicolor SbTyrAnc (non-canonical TyrA), SEQ ID NO: 43, recombinant (Sorghum bicolor) (protein, from cDNA) ALTSPSPVEQHLQAVVPCHGISDPPAASSAAAVPAAPLRVGIVGFGNFGQFIAGGLQRQGHVVLAASRSDYSVYCASHGIRFFRSVDALCEEQPDVLLICSSILSTEGVVRAIPFRKLRHDTIVADVLSVKEFPRNLLLEVLPPGFGIICTHPMFGPESGKHGWGKLPFVFDKVRVAEDGDQAAKCDQFLSIFEQEGCRMVEMSCAEHDRYAAGSQFITHTIGRVLSQLNLKSTPINTKGYETLLQLTKNTVSDSFDLYYGLFMYNVNATEQLDKLEMAFEKVRQMLSGRLHDFIRKQIVERAAHVPADPSGKLANGLSSSPAARLL | 220 ± 60 | 73.5 ± 18.2 | 338000 ± 19500
Sorghum bicolor SbTyrA2, SEQ ID NO: 41, recombinant (Sorghum bicolor) (protein, from genomic DNA) ATGASQPLGTDSNEEVEKVEEQPQPPPRLKIAVVGFGTFGQFLARTLVAQGHTVLAHSRSDHSAAAASMGALFFSDPHDLCECHPDVVLLATSILSAESVVRSLPLHRLRRDTLFADVLSVKEFPKRLLLGLLPEEMDILCTHPMFGPESARAGWAGLPFMFDKVRVRDTVPARRARAEAFLDVFAQEGCRMVEMSCAEHDAHAAETQFLTHTVGRMLAALELRATPIDTRGYETLLRLVENTCSDSFDLYNGLFMYNNNSTELLNRLDWAMDAVKRRLFDGLHDVLRRQLFHVGEVEGEAERMEELAVVPGGGPDTDDDGCATATATSIKSGEENN | 2130 ± 530 | 38.5 ± 8.8 | 18100 ± 9600
Sorghum bicolor SbTyrA1, SEQ ID NO: 39, recombinant (Sorghum bicolor) (protein, from genomic DNA) MLSSSTSTLRLHQPTRPHRHHPPAPAAGGATHLASPRRWRGHAPGASSPPALRARAQRIRALDAAQPFDFESRAAGLLEERQRLKIAIVGFGNFGQFLARTFARQGHTLLAHSRTDHSALASTLGASFFTDPHDLCECHPDVVLLATSILSAEAVLRSLPVHRLRRNTLFVDVLSVKEFPRNLLLSSLPPDFDVICTHPMFGPESARDGWDGLPFVFDKVRVGDCPARRARAEAFLNIFEREGCRMVEMSCAEHDAHAAETQFLTHTVGRMLAMLELRSTPINTKGYETLLRLVDNTCSDSFDLYNGLFMYNKNSTELLNRVEWAMDSVKKKLFDGLHDVLRKQLFEGSPHAPNVSSSNVRK | 570 ± 150 | 2.9 ± 0.6 | 5300 ± 800

— US20250115926A1, “DEREGULATED DHS AND TYRA ENZYMES OF GRASSES ENABLE EFFICIENT PRODUCTION OF BOTH TYROSINE AND PHENYLALANINE” (priority 2023, published 2025)
